Assay results: the nanobody polyreactivity screen of Harvey et al. (2022)

Assay: yeast display, Sf9 membrane polyspecificity reagent, FACS + sequencing; frameworks hold sequencing errors
Procedure, shortened: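 Galactose induction of a Saccharomyces cerevisiae BJ5465 synthetic nanobody display library ran 36–48 hours. The cells were then stained for 1 hour at 4 °C with 10% biotinylated, detergent-solubilized Sf9 membrane reagent, pulled down on streptavidin microbeads and FACS-sorted into low and high (top ~1%) gates on expression and reagent-binding fluorescence. Labels for polyreactivity follow the gate of origin.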

Row | Sequence | polyreactivity (PSR sort gate)
1 | QVQLVESGGGLVQAGGSLRLSCAASGRTFVYYAMGWYRQAPGKEREFVAAISRSGGRTSYADSVKGRFTISRDNAKNTVYLQMNSLKPEDTAVYYCAAEKRTQPTSREYYWGQGTQVTVSS | high polyreactivity
2 | QVQHVESGGGLVQAGGSLPLSCAASGITFSKYAMGWYRQAPGKERELVAAITRSGGSTYYADSVKGRFTISRDNAKNTVYLQMNSLKPEDTAVYYCAAKRRERYGQTYGYWGQGTQVTVSS | high polyreactivity
3 | QVQLVESGGGLVQAGGSLRLSCAASGFTLSRYAMGWYRQAPGKERELVAAISSSGDSTYYADSVKGRFTISRDNAKNTVYLQMNSLKPEDTAVYYCNVYTYHRYDYWGQGTQVTVSS | high polyreactivity
4 | QVQLVESGGGLVQAGGSLRLSCAASGRISSIYAMGCYRQAPGKERELVATISVRTTGTYYADSVKGRFTISRDNAKNTVYLQMNSLKPEDTAVYYCAAAKRRGYYVKYDYWGQGTQVTVSS | high polyreactivity
5 | QVQLVESGGGLVQAGGSLRLSSASSGRTFYKYAMGWYRQAPGKERELVAAISRRGGSTYYADSVKGRFTISRDNAKNTVYLQMNSLKPEDSAVYYCAAGGSVAFYYWGQGTQVTVSS | high polyreactivity
6 | QVQLVESGGGLVQAGGSLRLSCAASGSIVDWYVMGWYRQAPGKERELVAAITSTGSTYYADSVKGRFTISRDNAKNTVYLQMNSLKPEDTAVYYCATSFYVYPTYYIMDYWGQGTQVTVSS | low polyreactivity
7 | QVQLVESGGGLVQAGGRLRLSCAASGLIFSVYVMGGYRQAPGKERELVAGITTGGSTKYADSVKGRFTISRDNAKNTVYLEMNSLKPEDTAVYYCAVGKYNYRGSWDYYWGQGTQVTVSS | high polyreactivity
8 | QGQLVESGGGLVQAGGSRRLSCAASGFIYFNAMGWSRQAPGKEREMVASISYSGGSTYYADSVKGRFTISRDNAKNTVYLQMNSLKPEDTAVYYCAKAFIEPGYKYDSWGQGTQVTVSS | high polyreactivity
9 | QVQLVESGGGLVQAGGSLRLSCAASGFIFSHNAMGWYRQAPGKERELVAAIDYIDGSTYYADSVKGRFTISRDNAKNTVYLQMNSLKPEDTAVYYCAADGLFYWWHYGYWGQGTQVTVSS | low polyreactivity
10 | QVHLVETGGGLVQAGGSLRISCAASGFTFSRYAMVWYRQAPGKERELVAAITSRGGSTYYADSVKGRFTISRDNAKNTVYLQMNSLKPEDTAFYYCAASGRNRKDGLYEYYYWGQGTQVTVSS | high polyreactivity
11 | QVQLVESGGGLVQAGGRLRLSCAASGSTFLQNAMGWYRQAPGKEREFVAAISRSGGSTYYADSVKGRFTISRDNAKNTVYLQMNSLKPEDTAVYYCARRYWPGSAYWIYDYWGQGTQVTVSS | high polyreactivity
12 | QVQLVESGGGLVQAGGSLRLSCAASGRTFAHYTMGWYRQEPGKERELVAGITRGGSTYYADSVKGRFTISRDNAKNNVYLQMNSVKPEDTAVYYCNAVTNYFYRRMEYWGQGTQVTVSS | high polyreactivity
13 | QVQLVESGGGLDQAGGSLRLSCAASGFTFRYYAMGWYRQAPRKERELVAAIRRGGTTNYADSVKGRFTISRDNAKNTVYLQMNSLKPEDTAVYYCANYRYGYDYWGQGTQVTVSS | high polyreactivity
14 | QVQLVESGGGLVQPGGSLRLSCAASGRTYRWYAMGWYRQAPGKERELVASITSGVSTYYADSVTGRCTISRDNAKNTVNLQMNSLKPEDTAVYYCAAGYRFTTYLVYNYWGQGTHVTVSS | high polyreactivity
15 | QVQLVESGGGLVQAGGSLRLSCAASGNTFDYYAMGWYRQAPGKERELVAAITRGGSTNYADSVKGRFTISRDNAKNTVSLQMNSLKPEDTAVYYCAAEQRAPRFADYDYWGQGTQVTVSS | low polyreactivity
16 | QVQLVESGGGLLQAGGSLRLSCAASGLIFVVNDMGCYTQAPGKERELVAAISYSGSSTYGDSVKGRFTISRDNAKNTVYLQMNSMNPEDTAVYYCARGSTVRTRGVGYWGQGTLVTVSS | low polyreactivity
17 | QVQLVESGGGLVQAGGSLRLSCAASGFIFPTYAMGWYRQAPGKERELVATITTNAGGTHYADSVKGRFTISRDNAKNTVYLQMNSLKPEDTAVYYCAAKQYRPKQRKYWTRIYDYWGQGTQVTVSS | low polyreactivity
18 | QVQLVDSGGGLVQAGGSLRLSCAASGSIFQRYAMGWYRQAPGKERELVAGINWSGGRTYYADSVKGRFTISRDNAKNTVYLQMNSLKPEDTAVYYCAAARYTRYDYWGQGTQVTVSS | high polyreactivity
19 | QVQLVESWGGLVQAGGSLRLSCADSGSIFGYYAMGWSRHAPGKETELVAAISSGGRTDYADSVKGRFTISRDNAKNTVYLQMNSRKQEDTAVYYCAALQRTGPYAGSSGYWGQGTQVTVSS | high polyreactivity
20 | QVQLVESGGGLDQARGSLRLSCAASGRIFWRYAMGWYRQAPGKERELVASISSGGSTNYADSVKGRFTISRDNAKNTVYLQMNSLKPEDTAVYYCNAQAWHLGVITGRWNRYEYWGQGTQVTVSS | high polyreactivity
21 | QVQLVESGGGLVQAGGSLRLSCDASVSIFQPYAMGWYRQAPGKERELVAAISSSGGSTTYADSVKGRFTISRDNAKNTVYLQMKSLKPEDTAVYYCAADSADDMGYWGQGTQVTVSS | low polyreactivity
22 | QFQLVESGGGLVQSGGSLRLSCAASGSTFGYYTMGWYRPAPGTERELVAAITWSGGSTYYADSVKGRFTISRDNAKNTVYLPMNSLKPEDTAVYYCAADDYWTPFGYWGQGTQVTVSS | low polyreactivity

Row | Sequence | polyreactivity (PSR sort gate)
23 | QVQLVESGGGLVQAGGSLRISCAASGSTFWNAMGWYRQAPGKERELVAAIRLSGGSTYYADSVKGRFTISRDNAKNTVYLQMNSLKPEDTAVYYCNSDVTFGYWEYDYWGQGTQVTVSS | low polyreactivity
24 | QVQLVESGGGLVQAGGSLRLSCAASGNTFDGYDMGWYRQAPGKERELVAAITNTGASTYYADSVKGRFTISRDNAKNTVYLQMNSLKPEDTAVYYCNAQDSYPEDRHGMSYWGQGTQVTVSS | low polyreactivity
25 | QVQLVESGGGLVQAGGSLRLSCAASGIIFWPYAMGWYRQAPGKERELVASISTGGSTHYADSVKGRFTISRDNAKNTVYLQLNSLKPEDTAVYYCNADVGPTYSYDYWGQGTQVTVSS | low polyreactivity
26 | QLQLVESGGGLVQAGGSLRLSCAASGITFYGYAMGWYRQAPGKERELVAAISSRGGSTYYADSVKGRFTISRDNAKNTVYLQMNRLKPEDTAVYYCAAVYYTGEYYYWGQGTQVTVSS | high polyreactivity
27 | QVQHVESGGGLVQAGGSRRLSCAASGSTFYGYAMGWYRQAPGKEREFVAAITTSGGSTYYADSVKGRFTISRDNANNTVYLQMNSLKPEDTAVYYCAADGFYYDDGYWGQGTQVTVSS | low polyreactivity
28 | QLQLVDSGGGLVQAGGSLRLSCAATGFTFYYYVMGWYRQAPGKETELVAAISSRGGSTYYADSVKGRFTISRDNAKNTVYLQMNSLKPEDTAVYYCAATYWPYRPGYYYWGQGTQVTVSS | high polyreactivity
29 | QVQLVESGGGLVQAGGSLRLSCAASGFIFAYYAQGWYRQAPGKERELVAAITSRGGSTYYADSVKGRFTSSRDNAKNTVYVQMNSLKPEDTAVYYCAGRGYQRQYYYWGQGTQVTVSS | high polyreactivity
30 | QVQLVESGGGLVQAGGSLRLSCADSGSIFWGYAMGWYRQAPGKERELVAVISRGGSTYYADSVKGRFTISRDNAKNTVYLQMNSLKPEDTAVYYCAASSSWFYSPEYDYWGQGTQVSVSS | low polyreactivity
31 | QVQLVESGGGLVQAGGSLRLSCAASGRISESNDMGWYRQAPGKEREVVAAISSSGGSTYYADSVKGRFTISRDNAKNTVYLQMNSLKPEETAVDYCNAVYYRTVLKIGVYEYDYWGQGTQVTVST | low polyreactivity
32 | QVQLVESGGGLVQAGGSLRLSCAPSGSIFSAYAMGWYRQAPGKERELVAAITRGTSTNYADSVKGRFTISRDNAKNTVYLQMNSLKPEDTAVYYCAAEYGWYYVNFYYWGQGTQVTVSS | low polyreactivity
33 | QVQLVESGAGLVQAGGSLRLSCAASGSIFDYYAMGLYRQAPGKERELVAVITRGGSTYYADSVKGRFTISRDNAKNTDSLQMNSLKPEDTAVYYCNASRGYKSRYEYWGQGTQVTVSS | high polyreactivity
34 | QVHLVESGGGLVQAGGSLRLSCAASGSTFGSNAMGWYRQAPGKERELVAAITNGGSTNYADSVKGRFTISRDNAKNTVYLQMNSLKPDDTAVYYCNGDPQQSKLWTYFFGFPGYYWGQGTQVTVSS | low polyreactivity
35 | QVQLVESGGGLVQAGGSLRLSCAASGLTFGTNAMGWYRQAPGKERELVAAISTSSGSTYYADSVKGRFTISRDNAKNTVYLQMNSLKPEDTAVYYCAAVTVTKLSYYRYYYWGQGTQVTVSS | low polyreactivity
36 | QVQLVESGGGLDQAGGSLRLSCAASGRISGYYDMVWYRQAPGKERELVATITSDGGTNYADSVKGRFTISRDNAKNCVYLQINSLKPEDTAVYYCAAYGWYTKWHFAYGYWGQGTQVTVSS | low polyreactivity
37 | QVQLVESGGGLVQAGGSLRLSCAASGFTLPVYAMGWYRQAPGKERELVARITWSAGRTYYADSVKGRFTISRDNAKNTVYLQMNSLKPEDTAVYYCAAGPVSQQHSPGPHDYWGQGTQVTVSS | high polyreactivity
38 | QVQLVESGGGLVQAGGSLRLSCAASGSTFPANAMGWYRPAPGKERELVAAISSVGSTNYADSVKGRFTISRDNAKNTVYLQMNSLKPEDTAVYYCATQPTWYTVGDLDYWGQGTQVTVSS | low polyreactivity
39 | QVQLVESGGGLVQAGGSLRLSCAASGSIFLDNAMGWYRQAPGKERELVAAISKSGTRTYYADSVKGRFTISRDNAKTTVYLQMNSLKPEDTAVFYCNVVPKQAKRVELIGYYYWGQGTQVTVSS | high polyreactivity
40 | QVHLVESWGGLVQAGGSLRLSCSASGITFDEYTIGWYRQAPGKERELVAAIDSDGSTTYADSVKVRFTISRDNAKNTVYLQMNILKPEDTEVYYCNAEHGDFCWHYLLYDYDYWGQGTQVTVSS | low polyreactivity
41 | QVQLVESGGGLVQAGGSLSLSCAASGFNSSHYAMGWYRQAPGKERELVATISSGGSTYADSVKGRFTISRDNAKNTVYLQMNSLKPEDTAVYYCDKGVRYKQYHIMYYWGQGTQVTVSS | high polyreactivity
42 | QVQLVESGGGLVQAGGSLRLSCAASGFIFRLNAMGWYRQAPGKERELVAAISTYADSMKGRFTISRDNAKNTVYLQMNSLKPEDTAVYYCAKDYTDTYAYRTGFDYWGQGTQVTVSS | low polyreactivity
43 | QDQLVDSGGGLDQAGGSLRLSCAASGGTFSSYDMGWYRQEPGKERELLADISWSGSSTDYADSVKGRYTISRDNAKNTVYLQLTSLKPEDTAVYYCAARPISFPYLGRNGYWGQGTQVTVSS | low polyreactivity
